Assays:
[1] = biological target: T1, neuraminidase (NA) of H1N1 A/Puerto Rico/8/1934 (influenza A virus H1N1 A/Puerto …, UniProt P03468 1-454); assay: flow cytometry on NA-transfected 293-F cells
T1 construct: whole, on cells

[2] = biological target: human FcγRIIIa receptor (V158) (human, UniProt P08637 17-254); assay: cell-based or functional assay
[3] = biological target: T2, neuraminidase (NA) of H1N1 A/New Caledonia/20/1999 (influenza A virus H1N1 A/New …); assay: cell-based or functional assay
[4] = biological target: T3, neuraminidase (NA) of H3N2 A/Brisbane/10/2007 (influenza A virus H3N2 …); assay: cell-based or functional assay
[5] = biological target: T4, neuraminidase (NA) of H3N2 A/Wisconsin/67/2005 (influenza A virus H3N2 …); assay: cell-based or functional assay
[6] = biological target: T5, neuraminidase (NA) of H1N1 A/Mississippi/3/2001 (influenza A virus H1N1 …); assay: cell-based or functional assay
[7] = biological target: neuraminidase (NA) of H3N2 A/Hong Kong/1/1968 (influenza A virus H3N2 A/Hong …, UniProt Q91MA2 1-469); assay: flow cytometry on 293-F cells transfected with NA; '-: no binding'
[8] = biological target: T2, neuraminidase (NA) of H1N1 A/New …; assay: cell-based or functional assay; remark: listed apart in the source
[9] = biological target: T3, neuraminidase (NA) of H3N2 …; assay: cell-based or functional assay; remark: listed apart in the source
[10] = biological target: T4, neuraminidase (NA) of H3N2 …; assay: cell-based or functional assay; remark: listed apart in the source
[11] = biological target: T5, neuraminidase (NA) of H1N1 …; assay: cell-based or functional assay; remark: listed apart in the source

neuraminidase (NA) of H3N2 A/Hong Kong/1/1968, sequence (Q91MA2 whole entry): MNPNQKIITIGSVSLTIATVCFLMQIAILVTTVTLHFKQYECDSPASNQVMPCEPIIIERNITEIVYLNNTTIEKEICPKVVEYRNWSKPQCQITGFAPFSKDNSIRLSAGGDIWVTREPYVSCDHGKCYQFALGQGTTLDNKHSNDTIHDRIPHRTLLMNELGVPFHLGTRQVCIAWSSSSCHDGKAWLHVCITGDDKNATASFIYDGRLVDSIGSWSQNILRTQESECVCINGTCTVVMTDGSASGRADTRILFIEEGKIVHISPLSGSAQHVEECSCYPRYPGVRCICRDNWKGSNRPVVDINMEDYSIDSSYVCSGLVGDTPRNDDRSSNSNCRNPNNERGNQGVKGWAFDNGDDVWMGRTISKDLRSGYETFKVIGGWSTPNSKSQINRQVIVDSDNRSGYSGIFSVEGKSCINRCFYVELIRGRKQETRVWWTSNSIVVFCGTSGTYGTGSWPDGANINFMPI
T1 sequence (P03468 whole entry): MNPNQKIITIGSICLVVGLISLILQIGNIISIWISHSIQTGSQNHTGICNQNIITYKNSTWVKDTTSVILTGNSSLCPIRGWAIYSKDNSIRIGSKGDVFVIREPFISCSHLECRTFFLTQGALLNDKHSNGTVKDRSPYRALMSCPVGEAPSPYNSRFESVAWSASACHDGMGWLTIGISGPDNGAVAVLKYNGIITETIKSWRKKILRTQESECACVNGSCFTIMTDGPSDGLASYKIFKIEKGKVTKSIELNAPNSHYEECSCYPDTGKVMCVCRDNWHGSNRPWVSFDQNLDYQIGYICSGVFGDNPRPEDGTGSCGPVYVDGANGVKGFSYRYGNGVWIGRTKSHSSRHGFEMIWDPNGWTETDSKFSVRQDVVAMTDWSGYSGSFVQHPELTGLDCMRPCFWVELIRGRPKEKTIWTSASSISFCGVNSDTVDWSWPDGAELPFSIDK
human FcγRIIIa receptor (V158), sequence (P08637 17-254 F176V limits assumed): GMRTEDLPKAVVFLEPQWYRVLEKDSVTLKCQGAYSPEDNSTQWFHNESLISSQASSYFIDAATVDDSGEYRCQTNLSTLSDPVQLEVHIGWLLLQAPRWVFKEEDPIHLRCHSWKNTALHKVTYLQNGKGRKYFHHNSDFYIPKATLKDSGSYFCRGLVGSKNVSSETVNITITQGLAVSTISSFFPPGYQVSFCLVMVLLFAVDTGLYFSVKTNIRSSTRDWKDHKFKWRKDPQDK

| Binder | binding result [1] | ADCC reporter D/A ratio; A549 targets infected with H1N1 A/Brisbane/59/2007 [2] | ADCC reporter D/A ratio; A549 targets infected with H1N1 A/Mississippi/03/2001 [2] | ADCC reporter D/A ratio; A549 targets infected with H1N1 A/New Caledonia/20/1999 [2] | ADCC reporter D/A ratio; A549 targets infected with H5N1 A/Hong Kong/156/1997 [2] | ADCC reporter EC50; A549 targets infected with H1N1 A/Brisbane/59/2007 [2] | ADCC reporter EC50; A549 targets infected with H1N1 A/Mississippi/03/2001 [2] | ADCC reporter EC50; A549 targets infected with H1N1 A/New Caledonia/20/1999 [2] | ADCC reporter EC50; A549 targets infected with H5N1 A/Hong Kong/156/1997 [2] | IC50 of virus neutralization (VNA on MDCK cells) [3] | IC50 of virus neutralization (VNA on MDCK cells; one experiment) [4] | IC50 of virus neutralization (VNA on MDCK cells; one experiment) [5] | IC50 of virus neutralization (VNA on MDCK cells) [6] | binding result [7] | EC50 of neuraminidase inhibition (NA-XTD assay, whole virus) [8] | EC50 of neuraminidase inhibition (NA-XTD assay, whole virus; one experiment) [9] | EC50 of neuraminidase inhibition (NA-XTD assay, whole virus; one experiment) [10] | EC50 of neuraminidase inhibition (NA-XTD assay, whole virus) [11] |
| --- | --- | --- | --- | --- | --- | --- | --- | --- | --- | --- | --- | --- | --- | --- | --- | --- | --- | --- |
| CR12042 (antibody, V domains shown) VH: EVQLVESGAEVRKPGSSVKVSCTASGDTFSSYTITWVRQAPGQGLEWMGEIIPIFGTANYAQKFQGRVTLTADESTTTAYMDLSSLRSEDTAVYYCARGPDNHSDRYFYYGMDVWGQGTTVTVSS VL: EIVLTQSPLSLPVTPGEPASISCRSSQSLLHSTGNNYLDWYLQKPGQSPQLLIYLGSNRASGVPDRFSGSGSGTDFTLKISRVEAEDVGVYYCMQALQTPRTFGQGTKVDIK | binds | 6.11 | 17.4 | 17.7 | 6.87 | 0.08 µg/mL | 0.14 µg/mL | 0.28 µg/mL | 0.01 µg/mL | 0.2 µg/mL | > 100 µg/mL | > 100 µg/mL | 0.2 µg/mL | no binding (tested: 5 µg/ml) | 0.18 µg/mL | 4.8 µg/mL | 1.87 µg/mL | 0.12 µg/mL |
| CR12044 (antibody, V domains shown) VH: EVQLVQSGSEVRKPGSTVKVSCKGSGGAFRTSVIHWVRQAPGQGLRWMGGIIPTLDTANHAQEFQGRATITADESTTTAYLELSSLRSEDSAVYYCATDYGGNSDRLGSYSFAFDVWGQGTTVTVSS VL: not shown | binds | 6.49 | 20.2 | 17.5 | 2.37 | 0.28 µg/mL | 5.19 µg/mL | 0.93 µg/mL | 11.6 µg/mL | 0.13 µg/mL |  |  | 0.37 µg/mL | no binding (tested: 5 µg/ml) | 0.17 µg/mL |  |  | 0.96 µg/mL |
| CR12041 (antibody, V domains shown) VH: EVQLVQSGAEVKKPGASVKVSCKAAGYTFTNYYLHWVRQAPGQGLESMGIINPSSGGTIYAQKFQGRVTMTRDTSTSTVFMELSSLTSEDTAVYYCARAGEGKSRFGEGKLRYFYYGMDVWGQGTTVTVSS VL: not shown |  | 2.15 | 8.38 | 4.08 | 5.48 | 1.97 µg/mL | 0.58 µg/mL | 1.61 µg/mL | 1.09 µg/mL | 0.74 µg/mL |  |  | 0.59 µg/mL | no binding (tested: 0.5 µg/ml) | > 100 µg/mL |  |  | > 100 µg/mL |
| CR12040 (antibody, V domains shown) VH: QVQLVQSGAEVKKPGASVKVSCKASGYTFTNYYINWVRQAPGQGLEWMGRINPLHGGTGFAEKFQGRLTMTRDTSTSTVDMELSSLRSEDTAIYYCVKERDTTMATDYYGRSGCFDYWGQGTLVTVSS VL: EIVLTQSPATLSLSPGERATLSCRASQSVRSYLAWYQQKPGQAPRLLIYDASNRATGIPARFSGSGSGTDFSLTISSLEPEDFAVYYCQQRSNWPITFGQGTRLEIK | binds | 2.73 | 9.26 | 3.19 | 3.1 | 3.83 µg/mL | 0.06 µg/mL | 0.07 µg/mL | 1.22 µg/mL | > 50 µg/mL |  |  | > 50 µg/mL | no binding (tested: 5 µg/ml) | > 100 µg/mL |  |  | > 100 µg/mL |

From US20180016348A1 (Janssen / Centocor, published 2018)
